In patent US20110053195:

Experiments:
[1] = test system: xylanase inhibitors present in wheat extract (WE)
[2] = test system: Wheat xylanase inhibitors WXI11.5, eluted from the Xy1A1A affinity column with 50% ethylene glycol pH 11.5

Pichia pastoris produced Xy1A1A_E79A inactive xylanase, sequence (chain, as listed by the source E79A): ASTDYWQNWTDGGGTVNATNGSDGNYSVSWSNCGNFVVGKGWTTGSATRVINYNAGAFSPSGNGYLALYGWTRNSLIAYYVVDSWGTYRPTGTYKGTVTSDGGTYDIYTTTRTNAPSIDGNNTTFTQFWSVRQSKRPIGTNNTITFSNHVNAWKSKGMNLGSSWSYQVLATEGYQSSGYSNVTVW

For “Pichia pastoris produced Xy1A1A_E79A inactive xylanase”, the “recovery of xylanase activity (azo-WAXY, A595) of added Xy1A1A in wheat flour extract” value [1] was “Of the 24 isolates tested, 9 showed recovery of xylanase activity”, the % Residual Activity of Avizyme 1310 with WXI pH11.5 (0.58 µg/ml) and XylA1A E79A (100 µg/ml) [2] was 121% and the % Residual Activity of XylA1A with WXI pH11.5 (0.58 µg/ml) and XylA1A E79A (100 µg/ml) [2] was 96.1%. For the same substance, the Xylanase Activity (umol/min/mg) of Avizyme 1310 with WXI pH11.5 (0.58 µg/ml) and XylA1A E79A (100 µg/ml) [2] was 6880 µmol/min/mg and the Xylanase Activity (umol/min/mg) of XylA1A with WXI pH11.5 (0.58 µg/ml) and XylA1A E79A (100 µg/ml) [2] was 4420 µmol/min/mg.
